The target of experiment [1] is T1, human full-length CD38 on cells (human, UniProt P28907 1-300).
T1 construct: whole, on cells; One molecule is used for cell-surface human CD38; also called CD38 on CHOS-CD38 cells; CD38 on the surface of Daudi cells
The experiment is described as follows: flow cytometry on CHOS-CD38 cells, PE secondary antibody. (Flow cytometry measures light scatter and fluorescence of single cells or particles in a stream.)
Excerpt: (§1) Flow cytometry was used to detect the binding activity of murine antibodies to recombinant high-expression cell line CHOS-CD38 cells and tumor cell line DND-41 cells. The specific methods were as follows:
(§2) CHOS-CD38 and DND-41 cells were collected, centrifuged to remove the cell culture medium, and the cells were washed twice with PBS buffer. The cells were counted and diluted with 1%BSA FACS buffer to 2^{∗}10⁶ cells/ml. The cells were spread into round-bottom 96-well plate for use. The antibody to be tested was diluted with 1%BSA buffer for 8 gradients and added to the round-bottom plate with the above cells. The plate was incubated at 4° C. for 1 hour. After centrifugation, the supernatant was removed and the plate was washed 3 times with 1% BSA FACS buffer. 100 µl donkey anti-mouse PE fluorescent secondary antibody or goat anti-human PE fluorescent secondary antibody was added to each well at a ratio of 1:300 (see the instructions for fluorescent secondary antibody for details), and the plate was incubated at 4° C. for 1 hour. The samples were washed for 3 times with 1% BSA FACS buffer and then re-suspended with 1% BSA FACS buffer at 200 µl/well. FACScalibur BD was used to analyze the samples.

The target in experiment [2] is T1, human full-length CD38 on cells. The experiment is described as follows: flow cytometry on DND-41 tumor cells, PE secondary antibody.
Excerpt: as §1, §2
The target in the next experiment is T2, human CD38-Fc protein (human, UniProt P28907 43-300).
T2 construct: extracellular domain; Recombinant Fc-tagged extracellular segment of human CD38; not shown: Fc tag
The experiment is described as follows: indirect ELISA, CD38-Fc coated at 1 ug/ml, HRP goat anti-mouse IgG. For orientation: An ELISA detects its analyte on a solid surface through an enzyme-linked reagent.

Experiment [3] has as its target T1, human full-length CD38 on cells. The experiment is described as follows: flow cytometry on Daudi cells (MFI), FITC goat anti-human Fc secondary antibody.
Description: After Daudi cells were counted, PBS solution containing 1% BSA was used to inoculate the cells into 96-well round-bottom culture plates with 2×10⁵ cells per well. 50 µl anti-CD38 antibody in gradient dilution with PBS solution was added to the 96-well plate. The plate was incubated at room temperature for 1 h, then it was centrifuged to discard the supernatant. Then the cells was washed with PBS twice. FITC-labeled goat anti-human (Fc-Speicific) antibody was added (1:1000 diluted with PBS containing 1% BSA) and the plate was incubated at room temperature for half an hour. The cells was centrifuged and washed, then the Mean Fluorescence Intensity (MFI) of the FITC channel was detected by flow cytometry. The flow cytometer software was used to process the experimental data and the mean fluorescence intensity was calculated. The GraphPad Prism6 was used for data analysis and mapping, and EC50 was calculated.
Experiment [4] has the same target. Put plainly: cell-based or functional assay.

Description for human CD38-Fc protein: The binding ability of murine antibody to human CD38-Fc protein was determined by indirect enzyme-linked immunosorbent assay (ELISA).
CD38-Fc protein was diluted in coating solution (50 mM carbonate coating buffer, pH 9.6) to 1 µg/ml to coat plate at 4° C. overnight. Then the plate was blocked with 5% skim milk and incubated at 37° C. for 2 hours. […] The plate was washed with PBST for 3 times, and the HRP-labeled goat anti-mouse IgG was added and placed at 37° C. for 30 min. After washing the plate with PBST for 3 times, the plate was patted on the absorbent paper to remove residual droplets as far as possible. 100 µl TMB was added to each well, and then the plate was placed at room temperature (20±5° C.) away from light for 5 min. Then 50 µl 2 M H₂SO₄ terminating solution was added to each well to terminate the substrate reaction. OD values were read at 450 nm on the microplate reader to analyze the binding ability of the tested antibody to the target antigen human CD38-Fc.

B1: murine antibody 50G12 (antibody, V domains shown)
VH: QVQLQQSGAELARPGASVKLSCKASGYTFNTYWMQWVKQRPGQGLEWIGAIYPGDGDITYNQKFKGKATLTADKSSNTAYMHLSSLASEDSAVYYCAREGYYYGGALDYWGQGTSVTVSS
VL: QIFLTQSPAIMSASLGERVTMTCTASSSVSSSYLHWYQQKPGSPPKLWMYGTSNLASGVPPRFSGSGSGTSYSLTISSMEAEDAATYYCHRYHRSPWTFGGGTKLEIK
notes: Mouse monoclonal antibody purified from hybridoma supernatant by Protein G; also called 50Ga12; 50G12 murine antibody
Consider B1, for which the EC50 (as a rule, the midpoint of the concentration-response curve) in experiment [1] came to 0.687 µg/mL; in experiment [2], 0.134 µg/mL; with human CD38-Fc protein it was 0.173 nM.

B2: 50G12-Chimeric (antibody, human IgG1, V domains shown)
VH: QVQLQQSGAELARPGASVKLSCKASGYTFNTYWMQWVKQRPGQGLEWIGAIYPGDGDITYNQKFKGKATLTADKSSNTAYMHLSSLASEDSAVYYCAREGYYYGGALDYWGQGTSVTVSS
VL: QIFLTQSPAIMSASLGERVTMTCTASSSVSSSYLHWYQQKPGSPPKLWMYGTSNLASGVPPRFSGSGSGTSYSLTISSMEAEDAATYYCHRYHRSPWTFGGGTKLEIK
notes: Murine 50G12 VH joined to the human IgG1 heavy chain constant region and murine 50G12 VL joined to the human Kappa chain constant region; also called 50G12-Chimeic; 50G12-Chi-HC / 50G12-Chi-LC
In experiment [3], B2 had an EC50 of 0.528 nM. This lies in the sub-nanomolar range.

B3: 50G12-Humanized (antibody, human IgG1, kappa, V domains shown)
VH: QVQLVQSGAEVKKPGASVKVSCKASGYTFNTYWMQWVRQAPGQGLEWMGAIYPGDGDITYNQKFKGRVTLTADKSTSTVYMELSSLRSEDTAVYYCAREGYYYGGALDYWGQGTLVTVSS
VL: DIQMTQSPSSLSASVGDRVTITCTASSSVSSSYLHWYQQKPGKAPKLWMYGTSNLASGVPSRFSGSGSGTDYTLTISSLQPEDFATYYCHRYHRSPWTFGQGTKVEIKR
notes: Human IgG1 / Kappa; also called humanized antibody 50G12-Humanized; 50G12-Hu-HC / 50G12-Hu-LC
As for B3, in experiment [4], the “ADCC EC50 (Daudi target cells, human PBMC effectors, LDH release)” value turned out to be 0.106 nM and the “apoptosis induction EC50 (Daudi cells, Annexin V-FITC)” value was found to be 0.568 nM. The midpoint of the response in experiment [3], the EC50, lay at 0.605 nM.

The values above are taken from patent publication US20230322943A1 (SUNSHINE GUOJIAN PHARMACEUTICAL SHANGHAI, published 2023).
